Consider one molecule from US20140274766A1, “METHODS OF USING F-SPONDIN AS A BIOMARKER FOR CARTILAGE DEGENERATIVE CONDITIONS AND BONE DISEASES” (priority 2009, published 2014).

Test [1] relates to latent TGF-β1 in OA cartilage explants. Briefly: Activation of latent TGF-β1 in OA cartilage explant cultures (ELISA). Conditions: F-spondin 1 μg/ml, 24 h. In kind it is cell-based, human. The method, then:
FIG. 12: Activation of Latent TGF-β1 by exogenous addition of F-spondin in OA cartilage explant cultures: Human OA cartilage was grown as explant cultures in serum free Ham'F-12 medium. All the conditions were done in triplicate. To the cartilage explants recombinant human F-spondin (1 ug/ml) or IL-1 (1 ng/ml) were added and supernatants were collected after 24 h. Both active and total TGF-β1 was estimated. Addition of F-spondin increased the levels of active TGF-β1 observed in explants cultures without significant increase in total latent TGF-β1 secretion.
The effect of F-spondin on latent TGF-β1 activation in OA cartilage explant cultures was studied by ELISA (R&D systems). Unstimulated OA cartilage explants spontaneously released both latent TGF-β1 (˜11 ng/g cartilage) and active TGF-β1 (200 pg/g cartilage) in culture supernatants (FIG. 12).

The test system of test [2] is OA cartilage explant cultures. Conditions: cited from earlier work.
The test system of test [3] is chondrocytes in monolayer culture. Briefly: F-spondin effects on genes/gene products, preliminary experiments with chondrocytes in monolayer culture. Further details: key to TNFα regulation / IL-1β regulation / AGC1 regulation / PGE2 regulation / MMP-13 regulation / TGF-β regulation / BMP-2 regulation / MMP-1 regulation / IL-8 regulation / IL-6 regulation / COL2A1 regulation: F-spondin-mediated upregulation*; downregulation**. In kind it is cell-based, human. As to the method:
F-spondin induced both catabolic and anabolic gene/gene products in chondrocytes including BMP-2, type II collagen, TGF-β1, COX-2, mPGES and PGE2. To begin to address the question of whether selected F-spondin effects in cartilage are mediated by prostaglandin production, we have begun studies to characterize the effect of PGE2 in cartilage. Addition of PGE2 (1-10 uM) to cartilage explants inhibited type II collagen, aggrecan expression, ^35SO4 incorporation, as well as increased type II collagen degradation as assessed by C12C ELISA (IBEX). […] Relative to normals, NURR1 was overexpressed in OA cartilage (2-5 fold) and synovium (2 fold), confirmed by QPCR. Incubation of OA chondrocytes with PGE2 (1-10 uM) induced NURR1 expression (20-50 fold), as analyzed by QPCR. Since NURR1 binds to the NURR1 cis-acting sequence (NBRE) in the promoter region of a variety of genes, we examined the effect of adenoviral-mediated over-expression of NURR1 in chondrocytes.
For initial experiments, chondrocytes isolated from OA knee joints will be used, building from our previous observations using monolayer cultures of these cells (Attur M G, Dave M, Cipolletta C, Kang P, Goldring M B, Patel I R, et al. Reversal of autocrine and paracrine effects of interleukin 1 (IL-1) in human arthritis by type II IL-1 decoy receptor. Potential for pharmacological intervention. J Biol Chem 2000; 275(51):40307-15). However, because OA chondrocytes endogenously express F-spondin, at least initially, there is a potential for a masking effect between control and F-spondin-transduced cultures. To address this, experiments will also be performed in both “normal” chondrocytes isolated from non-arthritic cartilage (obtained from NDRI, Philadelphia) and immortalized C28I2 chondrocytes, where endogenous F-spondin expression is low and absent, respectively (unpublished data). Using this experimental culture system, we expect similar metabolic responses among chondrocyte sources, however if variation between sources is observed, to F-spondin either with or without IL-1, they will be noted and investigated further. For each group and time point, alginate cultures and conditioned cell culture media supernatants will be analyzed by quantitative PCR, ELISA and biochemical assays for molecular markers associated with cartilage anabolism and catabolism. Based on our preliminary findings with F-spondin and IL-1 treatment of monolayer chondrocytes, we predict that at least some of these molecules will be modulated in alginate cultures.

In test [4] the test system is human chondrocytes. Briefly: PGE2 production by human chondrocytes (RIA), F-spondin supernatant and blocking antibodies. It counts as cell-based. Conditions: supernatants from F-spondin transfected cells, 24 h, vs control vector supernatants. As to the method: FIG. 11: Blocking of F-spondin function by antibody: Human chondrocytes were grown in monolayer culture. The cells were adapted to serum free medium conditions for 24 h before treating with either F-spondin transfected supernatant (150 uL), LM609 (αvβ3) or R1 (F-spondin blocking antibody) for 24 h and the culture supernatant was collected for PGE2 estimation by RIA. The data is representative of one of the three experiments. F-spondin induced production of PGE2 was inhibited by R1 (TSR 3-6 blocking antibody).
F-spondin consists of reelin, spondin and six TSR domains; these domains may activate various cellular functions by binding to different receptors. Previously, Terai et al (2001) have shown that F-spondin inhibits angiogenesis in endothelial cells by binding to αvβ3 (Terai Y, Abe M, Miyamoto K, Koike M, Yamasaki M, Ueda M, et al. Vascular smooth muscle cell growth-promoting factor/F-spondin inhibits angiogenesis via the blockade of integrin alphavbeta3 on vascular endothelial cells. J Cell Physiol 2001; 188(3):394-402). […] Accordingly, human chondrocytes were incubated with the supernatant from F-spondin transfected cell culture for 24 h and the levels of PGE2 were measured under various conditions (FIG. 11). […]

B1: F-spondin: 110 kDa, secreted, heparin-binding extracellular matrix glycoprotein; used as recombinant protein (R&D systems) or transfected-cell supernatant (protein, UniProt Q9HCB6 29-807, looked up)
Spondin-1: FSDETLDKVPKSEGYCSRILRAQGTRREGYTEFSLRVEGDPDFYKPGTSYRVTLSAAPPSYFRGFTLIALRENREGDKEEDHAGTFQIIDEEETQFMSNCPVAVTESTPRRRTRIQVFWIAPPAGTGCVILKASIVQKRIIYFQDEGSLTKKLCEQDSTFDGVTDKPILDCCACGTAKYRLTFYGNWSEKTHPKDYPRRANHWSAIIGGSHSKNYVLWEYGGYASEGVKQVAELGSPVKMEEEIRQQSDEVLTVIKAKAQWPAWQPLNVRAAPSAEFSVDRTRHLMSFLTMMGPSPDWNVGLSAEDLCTKECGWVQKVVQDLIPWDAGTDSGVTYESPNKPTIPQEKIRPLTSLDHPQSPFYDPEGGSITQVARVVIERIARKGEQCNIVPDNVDDIVADLAPEEKDEDDTPETCIYSNWSPWSACSSSTCDKGKRMRQRMLKAQLDLSVPCPDTQDFQPCMGPGCSDEDGSTCTMSEWITWSPCSISCGMGMRSRERYVKQFPEDGSVCTLPTEETEKCTVNEECSPSSCLMTEWGEWDECSATCGMGMKKRHRMIKMNPADGSMCKAETSQAEKCMMPECHTIPCLLSPWSEWSDCSVTCGKGMRTRQRMLKSLAELGDCNEDLEQVEKCMLPECPIDCELTEWSQWSECNKSCGKGHVIRTRMIQMEPQFGGAPCPETVQRKKCRIRKCLRNPSIQKLRWREARESRRSEQLKEESEGEQFPGCRMRPWTAWSECTKLCGGGIQERYMTVKKRFKSSQFTSCKDKKEIRACNVHPC
With B1, in test [1], the “increase of active TGF-β1” value is on record as 225% and the “total latent TGF-β1 synthesis” value is “without significant changes”. Besides, the “active TGF-β1 in culture supernatants” value in test [1] (unstimulated 200 pg/g cartilage) is listed as 550 pg/g cartilage. In test [2], the MMP-13 secretion entry is given as “increase” and the “type II collagen degradation” value was “increase”. Moreover, in test [3] (chondrocytes), the COX-2 gene/gene product entry was “induced” and the mPGES gene/gene product result was “induced”. In test [3] (preliminary, monolayer culture), the AGC1 regulation result is “AGC1*”, the BMP-2 regulation result is reported as “BMP-2*”, the COL2A1 regulation entry was “COL2A1*” and the IL-1β regulation result is recorded as “IL-1β**”. Moreover, in test [3] (preliminary, monolayer culture), the IL-6 regulation result is on record as “IL-6*”, the IL-8 regulation entry is given as “IL-8*”, the MMP-1 regulation entry is reported as “MMP-1**” and the MMP-13 regulation result is reported as “MMP-13*”. For the same molecule, in test [3] (preliminary, monolayer culture), the PGE2 regulation entry is reported as “PGE2*”, the TGF-β regulation result is “TGF-β*” and the TNFα regulation result is recorded as “TNFα**”. Moreover, the PGE2 production result in test [4] is given as “significantly increased”.
